Results reported in article PMC9455167.

Experiments:
[1] = target: Recombinant human Src kinase (Abcam 79635) (human) (UniProt P12931)
[2] = target: Recombinant human Src kinase (Abcam 79635) (human) (UniProt P12931); assay: MST; RED-tris-NTA-labelled His-tagged Src kinase constant at 50 nM; unlabelled Na,K-ATPase 0.2 nM to 16 µM; 50 mM Tris/HCl pH 7.4, 150 mM NaCl, 10 mM MgCl2; Monolith NT.115, LED 100%, MST power 40%

## Na,K-ATPase purified from duck salt glands (complex)
[1]
  reduction of Src autophosphorylation at Tyr416 in vitro (purified Na,K-ATPase, Src kinase, ATP; Western blot p-Src/Src): 70%
[2]
  Kd: 0.21 µM
